Results taken from US20220332804A1 (CSL INNOVATION, published 2022).

Columns and labels:
Experiment in all cases: SPR; KD relative to WT C2;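 further: biacore SPR at 37 °C, anti-C2 mAbs captured on an anti-human IgG chip, alanine or serine C2 surface mutants tested, KD from 1:1 fit compared with wild-type C2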
[1] = biological target: T1, human C2 S278A (human, UniProt P06681 21-752)
T1 sequence: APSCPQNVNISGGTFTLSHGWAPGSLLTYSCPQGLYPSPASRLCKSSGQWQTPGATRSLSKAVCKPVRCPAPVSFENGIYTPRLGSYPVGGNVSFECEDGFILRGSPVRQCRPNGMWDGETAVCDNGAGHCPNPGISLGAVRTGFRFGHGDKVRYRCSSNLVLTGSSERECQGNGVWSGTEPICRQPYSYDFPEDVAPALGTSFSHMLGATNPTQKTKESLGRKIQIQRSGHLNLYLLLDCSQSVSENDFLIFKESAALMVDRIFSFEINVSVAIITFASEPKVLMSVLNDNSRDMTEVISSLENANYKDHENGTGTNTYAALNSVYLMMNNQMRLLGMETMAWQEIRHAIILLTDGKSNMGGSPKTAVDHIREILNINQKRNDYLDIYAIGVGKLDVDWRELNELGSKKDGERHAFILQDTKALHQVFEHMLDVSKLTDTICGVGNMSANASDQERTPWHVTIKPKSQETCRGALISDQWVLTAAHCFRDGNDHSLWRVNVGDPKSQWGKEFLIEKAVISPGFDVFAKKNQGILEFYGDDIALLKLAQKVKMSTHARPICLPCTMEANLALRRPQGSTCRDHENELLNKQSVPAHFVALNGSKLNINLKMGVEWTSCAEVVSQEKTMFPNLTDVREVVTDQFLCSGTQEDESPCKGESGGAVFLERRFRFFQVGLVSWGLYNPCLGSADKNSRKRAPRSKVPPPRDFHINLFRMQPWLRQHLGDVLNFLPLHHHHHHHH
Procedure: (§1) Surface plasmon resonance (SPR, Biacore) was used for all binding affinity analyses. In brief, goat anti-human IgG was directly immobilised onto the carboxymethyl dextran surface of CM5 sensorchips to approximately 12,000 RU using standard NHS/EDC chemistry at pH 5. The immobilised antibody surface was pre-conditioned with ten injections of polyclonal human IgG (Privigen 60 s) prepared at 1 μg/mL. Ligands (anti-C2 mAbs) were captured at the beginning of each cycle as described below. An adjacent spot or flow cell in which only Polyclonal IgG was capture was used as a reference surface. The goat anti-human IgG Fc antibody surface was regenerate in 100 mM H3PO4, injected for 45 seconds at the end of each cycle. Experiments were performed at 37° C. and the flow rate of each experiment was kept constant at 30 μL/min.
(§2) Sensogram data was double-referenced against a reference anti-IgG surface (i.e. minus anti-C2 mAb) and blank buffer injections obtained within each experiment. The binding data was fit to 1:1 (kinetic or steady-state) model using local Rmax and null refraction index (RI=0) when appropriate. Buffers and solutions were filtered (0.22 μm) prior to use.
(§3) The C2 mutants were designed to test the importance of surface exposed residues for antibody binding. Residues located at either the N-terminal VWA domain or C-terminal protease domain of C were replaced by either alanine or serine and tested for binding against anti-C2 antibodies.

[2] = biological target: T2, human C2 N268A (human, UniProt P06681 21-752)
T2 sequence: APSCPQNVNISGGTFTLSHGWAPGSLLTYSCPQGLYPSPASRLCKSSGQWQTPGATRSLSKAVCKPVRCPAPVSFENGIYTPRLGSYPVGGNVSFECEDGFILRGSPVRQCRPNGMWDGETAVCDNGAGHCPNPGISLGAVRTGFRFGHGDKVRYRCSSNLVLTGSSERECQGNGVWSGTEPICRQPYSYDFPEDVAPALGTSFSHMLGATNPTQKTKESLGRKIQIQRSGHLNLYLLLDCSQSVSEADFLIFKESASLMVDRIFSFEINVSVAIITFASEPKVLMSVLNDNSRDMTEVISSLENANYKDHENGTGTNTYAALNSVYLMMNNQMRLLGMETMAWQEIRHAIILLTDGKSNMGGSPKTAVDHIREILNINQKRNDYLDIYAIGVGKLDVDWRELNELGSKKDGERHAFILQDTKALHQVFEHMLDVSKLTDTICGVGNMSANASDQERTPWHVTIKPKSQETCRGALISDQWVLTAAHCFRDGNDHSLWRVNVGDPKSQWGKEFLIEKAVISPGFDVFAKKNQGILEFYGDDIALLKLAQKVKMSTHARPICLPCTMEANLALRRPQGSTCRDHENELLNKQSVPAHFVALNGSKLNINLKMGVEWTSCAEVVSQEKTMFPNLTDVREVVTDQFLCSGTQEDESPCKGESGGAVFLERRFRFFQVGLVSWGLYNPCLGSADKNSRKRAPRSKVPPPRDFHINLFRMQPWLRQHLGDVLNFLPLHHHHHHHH
Procedure: as §1, §2, §3

[3] = biological target: T3, human C2 E267A (human, UniProt P06681 21-752)
T3 sequence: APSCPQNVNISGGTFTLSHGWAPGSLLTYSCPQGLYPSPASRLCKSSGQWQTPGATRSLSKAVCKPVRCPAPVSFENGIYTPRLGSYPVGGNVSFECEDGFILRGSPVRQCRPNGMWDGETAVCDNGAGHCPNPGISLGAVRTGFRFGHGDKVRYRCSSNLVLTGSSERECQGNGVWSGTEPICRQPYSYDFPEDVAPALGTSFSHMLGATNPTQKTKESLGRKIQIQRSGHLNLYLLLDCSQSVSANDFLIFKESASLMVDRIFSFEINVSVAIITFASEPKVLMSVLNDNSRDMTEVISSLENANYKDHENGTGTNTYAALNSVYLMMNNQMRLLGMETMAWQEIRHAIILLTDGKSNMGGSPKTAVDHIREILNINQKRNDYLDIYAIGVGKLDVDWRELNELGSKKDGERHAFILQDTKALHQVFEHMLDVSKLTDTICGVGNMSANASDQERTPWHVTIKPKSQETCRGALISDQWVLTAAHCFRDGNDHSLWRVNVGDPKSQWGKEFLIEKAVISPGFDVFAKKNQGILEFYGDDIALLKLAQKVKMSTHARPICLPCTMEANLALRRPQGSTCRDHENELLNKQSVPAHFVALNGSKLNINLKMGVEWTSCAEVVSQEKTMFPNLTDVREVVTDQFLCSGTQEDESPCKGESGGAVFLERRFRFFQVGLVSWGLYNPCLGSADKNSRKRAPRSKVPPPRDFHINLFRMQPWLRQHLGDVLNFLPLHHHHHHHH
Procedure: as §1, §2, §3

[4] = biological target: T4, human C2 F437A (human, UniProt P06681 21-752)
T4 sequence: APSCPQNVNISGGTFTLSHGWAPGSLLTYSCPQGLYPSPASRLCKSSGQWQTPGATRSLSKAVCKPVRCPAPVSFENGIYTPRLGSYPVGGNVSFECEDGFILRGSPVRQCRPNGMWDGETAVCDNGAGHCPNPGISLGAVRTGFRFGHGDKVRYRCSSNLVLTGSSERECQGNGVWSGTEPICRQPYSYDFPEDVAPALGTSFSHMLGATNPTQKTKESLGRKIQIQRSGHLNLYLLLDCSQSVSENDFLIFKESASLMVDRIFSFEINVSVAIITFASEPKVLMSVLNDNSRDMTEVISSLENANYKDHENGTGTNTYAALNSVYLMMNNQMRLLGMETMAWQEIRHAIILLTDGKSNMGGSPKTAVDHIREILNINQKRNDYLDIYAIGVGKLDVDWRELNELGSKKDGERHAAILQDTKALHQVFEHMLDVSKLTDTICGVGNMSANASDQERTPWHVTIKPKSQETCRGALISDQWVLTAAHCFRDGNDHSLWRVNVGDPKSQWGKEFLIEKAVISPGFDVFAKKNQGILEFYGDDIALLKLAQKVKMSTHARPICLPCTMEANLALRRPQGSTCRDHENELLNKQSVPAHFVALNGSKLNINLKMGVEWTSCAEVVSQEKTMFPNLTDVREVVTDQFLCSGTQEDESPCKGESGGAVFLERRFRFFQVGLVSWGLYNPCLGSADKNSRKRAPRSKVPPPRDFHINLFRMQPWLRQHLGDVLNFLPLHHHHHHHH
Procedure: as §1, §2, §3

Fold diff [1]: 1 fold | Fold diff [2]: 2 fold | Fold diff [3]: 1 fold | Fold diff [4]: 12 fold
B1: RF16-214 (antibody, V domains shown)
VH: EVQLLESGGGLVQPGGSLRLSCAASGFTFSWYQMMWVRQAPGKGLEWVSRIYPSGGGTAYADSVKGRFTISRDNSKNTLYLQMNSLRAEDTAVYYCARDAGYGDNWGQGTLVTVSS
VL: QSALTQPPSVSVSPGQTASITCSGDKLGEKYASWYQQKAGQSPVMVIYQDRKRPSGIPERFSGSNSGNTATLTISGTQAMDEADYYCQAWDTRAVVFGGGTKLTVLG
